{"source": "ChEMBL document CHEMBL1152109", "about": "“Synthesis and biological evaluation of a new series of dihydrofolate reductase inhibitors based on the 4-(2,6-diamino-5-pyrimidinyl)alkyl-L-glutamic acid structure” (Bioorg Med Chem Lett, 1996)", "molecules": {"B1": {"name": "Folylpolyglutamate synthase, mitochondrial (Homo sapiens), Q05932 (protein)", "chain": "MSRARSHLRAALFLAAASARGITTQVAARRGLSAWPVPQEPSMEYQDAVRMLNTLQTNAGYLEQVKRQRGDPQTQLEAMELYLARSGLQVEDLDRLNIIHVTGTKGKGSTCAFTECILRSYGLKTGFFSSPHLVQVRERIRINGQPISPELFTKYFWRLYHRLEETKDGSCVSMPPYFRFLTLMAFHVFLQEKVDLAVVEVGIGGAYDCTNIIRKPVVCGVSSLGIDHTSLLGDTVEKIAWQKGGIFKQGVPAFTVLQPEGPLAVLRDRAQQISCPLYLCPMLEALEEGGPPLTLGLEGEHQRSNAALALQLAHCWLQRQDRHGAGEPKASRPGLLWQLPLAPVFQPTSHMRLGLRNTEWPGRTQVLRRGPLTWYLDGAHTASSAQACVRWFRQALQGRERPSGGPEVRVLLFNATGDRDPAALLKLLQPCQFDYAVFCPNLTEVSSTGNADQQNFTVTLDQVLLRCLEHQQHWNHLDEEQASPDLWSAPSPEPGGSASLLLAPHPPHTCSASSLVFSCISHALQWISQGRDPIFQPPSPPKGLLTHPVAHSGASILREAAAIHVLVTGSLHLVGGVLKLLEPALSQ"}}, "key": {"[1]": {"test": "Ratio of Vmax/Km was evaluated."}, "Thymidylate synthase [2]": {"target": "T1, Thymidylate synthase (Homo sapiens, UniProt P04818)", "T1 sequence (P04818 whole entry)": "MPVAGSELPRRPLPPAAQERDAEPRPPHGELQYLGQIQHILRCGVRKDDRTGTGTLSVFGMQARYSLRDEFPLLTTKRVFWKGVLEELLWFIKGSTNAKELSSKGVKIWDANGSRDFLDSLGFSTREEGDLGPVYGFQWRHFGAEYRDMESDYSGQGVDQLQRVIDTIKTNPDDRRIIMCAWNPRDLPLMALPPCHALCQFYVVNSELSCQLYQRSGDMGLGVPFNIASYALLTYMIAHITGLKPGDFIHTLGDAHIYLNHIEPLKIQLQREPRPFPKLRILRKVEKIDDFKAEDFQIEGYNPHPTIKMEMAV", "test": "Binding affinity against Recombinant human thymidylate synthase (TS)"}, "Dihydrofolate reductase": {"target": "T2, Dihydrofolate reductase (Homo sapiens, UniProt P00374)", "T2 sequence (P00374 whole entry)": "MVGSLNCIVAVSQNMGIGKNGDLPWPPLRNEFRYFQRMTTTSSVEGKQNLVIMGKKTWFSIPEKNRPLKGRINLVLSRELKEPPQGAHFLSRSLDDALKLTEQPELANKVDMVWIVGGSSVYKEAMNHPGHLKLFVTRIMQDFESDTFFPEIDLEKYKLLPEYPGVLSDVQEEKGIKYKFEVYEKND", "test": "Binding affinity against Recombinant human dihydrofolate reductase (DHFR)"}, "[3]": {"test": "Binding affinity against human monofunctional glycinamide ribonucleotide formyl transferase (GARFT)"}, "Thymidylate synthase [4]": {"target": "T1, Thymidylate synthase", "test": "Binding affinity against Recombinant human thymidylate synthase (TS)."}, "[5]": {"test": "Binding affinity against human monofunctional glycinamide ribonucleotide formyl transferase (GARFT)."}, "[6]": {"substrate": "CCC(Cc1cnc2nc(N)nc(N)c2n1)c1ccc(C(=O)N[C@@H](CCC(=O)O)C(=O)O)cc1", "test": "Substrate activity against folyl-poly-glutamate synthetase (FPGS) (isolated from hog liver).", "conditions": "Sus scrofa"}, "[7]": {"substrate": "Nc1nc2[nH]cc(CCc3ccc(C(=O)N[C@@H](CCC(=O)O)C(=O)O)cc3)c2c(=O)[nH]1", "test": "(§1) Substrate activity against folyl-poly-glutamate synthetase isolated from hog liver", "conditions": "Sus scrofa"}, "[8]": {"substrate": "Nc1ncc(CCCCc2ccc(C(=O)N[C@@H](CCC(=O)O)C(=O)O)cc2)c(N)n1", "test": "as §1", "conditions": "Sus scrofa"}, "[9]": {"substrate": "Nc1ncc(CCCc2ccc(C(=O)N[C@@H](CCC(=O)O)C(=O)O)cc2)c(N)n1", "test": "as §1", "conditions": "Sus scrofa"}, "[10]": {"substrate": "Nc1nc2c(c(=O)[nH]1)C[C@@H](CCc1ccc(C(=O)N[C@@H](CCC(=O)O)C(=O)O)cc1)CN2", "test": "as §1", "conditions": "Sus scrofa"}, "[11]": {"substrate": "CN(Cc1cnc2nc(N)nc(N)c2n1)c1ccc(C(=O)N[C@@H](CCC(=O)O)C(=O)O)cc1", "test": "as §1", "conditions": "Sus scrofa"}}}
{"molecule": "Nc1nc2c(c(=O)[nH]1)CC(CCc1ccc(C(=O)N[C@@H](CCC(=O)O)C(=O)O)cc1)CN2", "note": "(single isomer, unassigned)", "values": [{"measurement": "Ratio", "setting": "[1]", "result": 60}]}
{"molecule": "Nc1ncc(CCCc2ccc(C(=O)N[C@@H](CCC(=O)O)C(=O)O)cc2)c(N)n1", "values": [{"measurement": "Ki", "setting": "Thymidylate synthase [2]", "result": "> 5", "unit": "µM"}, {"measurement": "Ki", "setting": "Dihydrofolate reductase", "result": 0.12, "unit": "nM"}, {"measurement": "Ki", "setting": "[3]", "result": 54.3, "unit": "µM"}]}
{"molecule": "CN(Cc1cnc2nc(N)nc(N)c2n1)c1ccc(C(=O)N[C@@H](CCC(=O)O)C(=O)O)cc1", "values": [{"measurement": "Ratio", "setting": "[1]", "result": 4.3}]}
{"molecule": "Nc1ncc(CCCCc2ccc(C(=O)N[C@@H](CCC(=O)O)C(=O)O)cc2)c(N)n1", "values": [{"measurement": "Ki", "setting": "Dihydrofolate reductase", "result": 0.005, "unit": "nM"}, {"measurement": "Ki", "setting": "Thymidylate synthase [4]", "result": "> 5", "unit": "µM"}, {"measurement": "Ratio", "setting": "[1]", "result": 34}, {"measurement": "Ki", "setting": "[5]", "result": 62, "unit": "µM"}]}
{"molecule": "CCC(Cc1cnc2nc(N)nc(N)c2n1)c1ccc(C(=O)N[C@@H](CCC(=O)O)C(=O)O)cc1", "note": "(stereo partly drawn)", "values": [{"measurement": "Ratio", "setting": "[1]", "result": 19}]}
{"molecule": "Nc1nc2[nH]cc(CCc3ccc(C(=O)N[C@@H](CCC(=O)O)C(=O)O)cc3)c2c(=O)[nH]1", "values": [{"measurement": "Ratio", "setting": "[1]", "result": 381}]}
{"molecule": "B1", "values": [{"measurement": "Km", "setting": "[6]", "result": 13.3, "unit": "µM"}, {"measurement": "Vmax", "setting": "[6]", "result": 258, "unit": "nM/h/mg"}, {"measurement": "Km", "setting": "[7]", "result": 1.9, "unit": "µM"}, {"measurement": "Vmax", "setting": "[7]", "result": 725, "unit": "nM/h/mg"}, {"measurement": "Km", "setting": "[8]", "result": 20, "unit": "µM"}, {"measurement": "Vmax", "setting": "[8]", "result": 685, "unit": "nM/h/mg"}, {"measurement": "Km", "setting": "[9]", "result": 5.1, "unit": "µM"}, {"measurement": "Vmax", "setting": "[9]", "result": 758, "unit": "nM/h/mg"}, {"measurement": "Km", "setting": "[10]", "result": 16.4, "unit": "µM"}, {"measurement": "Vmax", "setting": "[10]", "result": 977, "unit": "nM/h/mg"}, {"measurement": "Km", "setting": "[11]", "result": 116, "unit": "µM"}, {"measurement": "Vmax", "setting": "[11]", "result": 498, "unit": "nM/h/mg"}]}
